Measurements from US20240228658A1.
Positions count from the first letter of the chain named.

How the values were obtained:
[1] = target: T1, human 5T4 on cells (human) (UniProt Q13641); test: FACS on NCI-H226 cells (endogenous 5T4)
T1 sequence (looked up): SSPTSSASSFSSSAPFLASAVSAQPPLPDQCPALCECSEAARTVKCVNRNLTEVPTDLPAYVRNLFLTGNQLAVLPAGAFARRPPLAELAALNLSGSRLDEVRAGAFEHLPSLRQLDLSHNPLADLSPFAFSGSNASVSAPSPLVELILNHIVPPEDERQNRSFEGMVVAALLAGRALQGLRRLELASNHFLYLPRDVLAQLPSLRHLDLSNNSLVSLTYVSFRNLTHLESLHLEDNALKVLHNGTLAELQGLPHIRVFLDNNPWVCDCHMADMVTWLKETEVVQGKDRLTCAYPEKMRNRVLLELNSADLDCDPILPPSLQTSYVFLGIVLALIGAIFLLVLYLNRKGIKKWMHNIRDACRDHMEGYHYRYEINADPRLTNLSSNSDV

[2] = target: T1, human 5T4 on cells (human); test: cell-based or functional assay
[3] = target: T1, human 5T4 on cells (human); test: FACS on CHO cells over expressing 5T4
[4] = target: T1, human 5T4 on cells (human); test: FACS, CHO cells over expressing human 5T4
[5] = target: T2, h5T4-His (cat #19845-H08H, Sino Biological) (human) (UniProt Q13641); test: ELISA, coated h5T4-His
T2 sequence (looked up): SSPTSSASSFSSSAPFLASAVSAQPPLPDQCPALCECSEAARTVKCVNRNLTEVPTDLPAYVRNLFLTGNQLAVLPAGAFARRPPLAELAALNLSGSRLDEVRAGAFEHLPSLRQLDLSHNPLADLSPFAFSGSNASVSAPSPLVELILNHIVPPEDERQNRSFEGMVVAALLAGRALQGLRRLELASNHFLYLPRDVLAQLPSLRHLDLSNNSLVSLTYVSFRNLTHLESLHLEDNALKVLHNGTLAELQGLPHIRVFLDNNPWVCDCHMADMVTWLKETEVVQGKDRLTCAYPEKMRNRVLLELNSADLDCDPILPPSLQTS

[6] = target: T1, human 5T4 on cells (human); test: FACS, NCI-H226 cells

B1: IM-1222 Tribody (5T4_IM53-CD3-NKG2A) (protein, part only; not given: anti-CD3 Fab, anti-NKG2A scFv, linkers, not shown: another chain or arm of the molecule; small tags and cut ends)
VH: QVQLVQSGAEVKKPGASVKVSCKASGYTFTDYYMNWVRQAPGRGLEWMGVFNPYNGDTRYTQKFKDRVTMTIDKSISTAYMELSRLRSDDTAVYYCARLRLLYDTSEYYVMDYWGQGTTVTVSS
VL: ENVLTQSPATLSLSPGERATLSCSASSSVNYMHWYQQKPGQSPRLLIYDTSKLASGIPARFSGSGSGTDYTLTISSLEPEDFAVYFCFQGSGYPYTFGGGTKVEIK
In the case of B1, the EC50 [1] is reported as 3.9 nM, the T cells mediated cytotoxicity (lactate dehydrogenase assay), EC50 [2] is reported as 0.02 nM and the EC50 [3] is reported as 2.3 nM.

B2: CD3X5T4_cl-16XNKG2A (protein, part only; not given: anti-CD3 Fab, anti-NKG2A scFv, linkers, not shown: another chain or arm of the molecule; small tags and cut ends)
VH: AVQLQQSGPVRVKPGASVKMSCKASGYPFTDYYMNWVKQSHGRSLDWIGVFNPYNGDTRYTQKFKDKATLTIDKSSSTAYMELNSLTSEDSAVYYCARLRLLYDTSEYYVMDYWGQGTSVTVSS
VL: ENVLTQSPAIMSASPGEKVTMTCSASSSVNYMHWYQQKSNTSPKLWIYDTSKLASGVPGRFSGSGSGNSYSLTISSMEAEDVATYFCFQGSGYPYTFGGGTKLEIK
Work on B2 yielded an EC50 (read off the curve) [4] of 3 nM, an EC50 (read off the curve) [5] of 40 nM and an EC50 (read off the curve) [6] of 6 nM.

B3: CD3x5T4-IM34xNKG2A (protein, part only; not given: anti-CD3 Fab, anti-NKG2A scFv, linkers, not shown: another chain or arm of the molecule; small tags and cut ends)
VH: B1 VH with Q1A, R43Q, R67K, I76T, A79V, S84N, R85S, D89E
VL: B1 VL with S42A, T68N, Y70F, F86Y
In the case of B3, the EC50 (read off the curve) [4] is reported as 6 nM.

B4: CD3x5T4-IM49xNKG2A (protein, part only; not given: anti-CD3 Fab, anti-NKG2A scFv, linkers, not shown: another chain or arm of the molecule; small tags and cut ends)
VH: QVQLVQSGAEVKKPGASVKVSCKASGYTFTDYYMNWVRQAPGRGLEWIGVFNPYNGDTRYTQKFKDRATLTIDKSISTAYMELSRLRSDDTAVYYCARLRLLYDTSEYYVMDYWGQGTTVTVS
VL: B1 VL with S42A, F86Y
B4 was tested, and the EC50 (read off the curve) [4] was 5 nM.

B5: CD3x5T4-IM50xNKG2A (protein, part only; not given: anti-CD3 Fab, anti-NKG2A scFv, linkers, not shown: another chain or arm of the molecule; small tags and cut ends)
VH: B1 VH with T28P, M48I, R67K, V68A, M70L, S84N
VL: B1 VL with S42A, F86Y
In the case of B5, the EC50 (read off the curve) [4] is reported as 5 nM.

B6: CD3x5T4-IM51xNKG2A (protein, part only; not given: anti-CD3 Fab, anti-NKG2A scFv, linkers, not shown: another chain or arm of the molecule; small tags and cut ends)
VH: B1 VH with R43Q, I72R, K74T
VL: B1 VL
In the case of B6, the EC50 (read off the curve) [4] is reported as 5 nM.

B7: IM-1178 Tribody (CD3x5T4_IM24xNKG2D) (protein, part only; not given: anti-CD3 Fab, anti-NKG2D scFv, linkers, not shown: another chain or arm of the molecule; small tags and cut ends)
VH: QVQLVQSGAEVKKPGASVKLTCTASGYTFTAYYMHWMRQAPGQGLEWMGIVLPGRGSTNYAQKFQGRVTVTRDTSTNTVYMELNSLTSEDTAVYYCVRGYRDFDYWGPGTLVTVSS
VL: ELVLTQSPATLSLSPGERATLSCKASQNVGTAVAWYQQKPGQAPRLLIYSASNRYTGIPARFSGSGSGTDFTLTVSSLEPEDFAVYYCQQYTSYPRTFGQGTKVEIK
Work on B7 yielded an EC50 [1] of 1.24 nM and an EC50 [3] of 1.4 nM.
